Assay results as given in patent US20230280353A1, “DETECTION SYSTEM OF INTERACTION BETWEEN KNOWN MOLECULES AND PROTEINS BASED ON COVALENT CONNECTION AND IDENTIFICATION OR VERIFICATION METHOD THEREOF” (SHANGHAI JIAO TONG UNIVERSITY, priority 2021, published 2023).

B2: CobB protein (biotin-modified, with Avi tag) (enzyme)
chain: MLSRRGHRLSRFRKNKRRLRERLRQRIFFRDKVVPEAMEKPRVLVLTGAGISAESGIRTFRAADGLWEEHRVEDVATPEGFDRDPELVQAFYNARRRQLQQPEIQPNAAHLALAKLQDALGDRFLLVTQNIDNLHERAGNTNVIHMHGELLKVRCSQSGQVLDWTGDVTPEDKCHCCQFPAPLRPHVVWFGEMPLGMDEIYMALSMADIFIAIGTSGHVYPAAGFVHEAKLHGAHTVELNLEPSQVGNEFAEKYYGPASQVVPEFVEKLLKGLKAGSIA
notes: also called biotinylated CobB protein

How the values were obtained:
[1] = target: CobB protein (biotin-modified, with Avi tag) (UniProt P75960); assay: BLI; series 1000, 500, 250, 125 nM; the filing does not say which partner was on the sensor
[2] = target: CobB protein (biotin-modified, with Avi tag) (UniProt P75960); assay: BLI; series 1000, 500, 250, 125, 62.5 nM; the filing does not say which partner was on the sensor
[3] = target: T1, ETHR protein (Mycobacterium tuberculosis, UniProt P9WMC1); type: binding
T1 construct: Flag (C); 6×His (C); made in house; host or cells: E. coli BL21 (DE3), pET28a

[4] = Capture and mass spectrometry identification of m6A RNA interacting proteins; type: binding; conditions: 1 μM bait, HEK293T cell lysate
Description: HEK293T normal cells and SLIAC (Lys/Arg relabeled) cells were cultured and lysed with Thermo Fisher 78501 M-PER® Mammalian Protein Extraction to obtain cell lysates.
The reaction system was prepared as follows: 1 μM biotinylated m6A RNA, 5 μM SAm-Pup^E, 0.5 μM PafA7KR enzyme, 5 mM ATP, 5 mg HEK293T cell lysate or SILAC cell lysate were added, and buffer (50 mM Tris 8.0, 0.5 M NaCl, 20 mM MgCl2, 10% (v/v) Glycerol, 10 mM imidazole) was lysed to 5 ml. The system was incubated at 30° C. for 6h, and biotin agarose beads were added for incubation overnight at 4° C. Wash buffer 1 (8M urea, 50 mM Tris 8.0, 200 mM NaCl, 0.2% SDS), Wash Buffer 2 (8M urea, 50 mM Tris 8.0, 200 mM NaCl, 2% SDS), Wash buffer 3 (8M urea, 50 mM Tris 8.0, 200 mM NaCl), Wash buffer 4 (50 mM Tris 8.0, 0.5 mM EDTA, 1 mM DTT), Wash buffer 5 (50 mM NH4HCO3) were incubated at room temperature for 5 min and centrifuged at 1500 rpm for 4 min. The biotin agarose beads were transferred to a 1.5 mL centrifuge tube, centrifuged in a horizontal centrifuge with 1 mL Wash buffer 5, 1500 rpm for 4 min and washed repeatedly with Wash buffer 5 to obtain the reaction product. Trypsin was lysed and identified by mass spectrometry.

[5] = test system: YTDHF1, YTDHF2, YTDHF3 proteins; assay: SPIDER verification (immunoblot) of biotinylated m6A RNA with YTDHF1, YTDHF2, YTDHF3; type: binding; conditions: 0.5 μM biotinylated m6A RNA; GFP antibody
Text: The sequences of YTDHF1-GFP, YTDHF2-GFP and YTDHF3-GFP were constructed on pCDNA3.1 vector and transfected into HEK293T cells with Lipofectamine 2000 (ThermoFisher 118668).
Immunoblot analysis of GFP antibody was used.

[6] = test system: CSP series proteins (CSP1, CSP2, CSP3); assay: SPIDER verification (Western blot) of c-di-GMP and CSP series short peptides; type: binding; conditions: 2 μM, CSP proteins 5 μM; compared with c-di-GMP without biotinylation
Description: The N-terminal sequences encoding CSP1, CSP2 and CSP3 were all labeled with Flag tags and constructed on PET32a vector, which was fused with thioredoxin for expression. The recombinant vector was transformed into E. coli BL21 (DE3) strain. The CSP1, CSP2 and CSP3 proteins were obtained by adding IPTG and inducing at 37° C. for 4h when OD600 was about 0.6 in 1 L of bacteria medium. The CSP1, CSP2 and CSP3 proteins were purified by nickel column.
After that, PafA7KR (1 μM) and ATP (10 mM) were added into the system and incubated at 30° C. for 6 h. Flag antibody was used for Western blot analysis.

[7] = Biotin binding activity of SAm-Pup^E (SDS-PAGE); conditions: incubated with biotin at room temperature 1 hour
Description: The SAm-Pup^E protein and wild-type streptavidin (SA) purified in step 1 were mixed with biotin (A600078) and incubated at room temperature for 1 hour, and then detected by SDS-PAGE.

[8] = Description: The SA-Pup purified from Step 1 was added into Buffer R (50 mM Tris, PH 7.5, 100 mM NaCl, 20 mM MgCl2, 10% (v/v) glycerol) and high salt buffers (50 mM Tris-HCl, PH 8.0, 8 M urea, 15 mM DTT, 1 mM EDTA, PH 8.0) containing 8 M urea, respectively. After mixing, the supernatant was absorbed, and then biotin agarose beads were added to rotate and incubate at room temperature for 1 hour, and then the supernatant was absorbed. The supernatant was detected by SDS-PAGE.
[9] = target: CobB interacting proteins found and purified (tested by BLI, FIGS. 8B-8F); assay: BLI
[10] = target: T2, DksA, P0ABS1
T2 chain: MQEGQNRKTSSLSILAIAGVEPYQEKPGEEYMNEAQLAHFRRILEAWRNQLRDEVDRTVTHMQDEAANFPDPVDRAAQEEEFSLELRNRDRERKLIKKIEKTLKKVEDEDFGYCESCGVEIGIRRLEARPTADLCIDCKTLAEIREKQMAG

[11] = target: T3, VacB, P21499
T3 chain: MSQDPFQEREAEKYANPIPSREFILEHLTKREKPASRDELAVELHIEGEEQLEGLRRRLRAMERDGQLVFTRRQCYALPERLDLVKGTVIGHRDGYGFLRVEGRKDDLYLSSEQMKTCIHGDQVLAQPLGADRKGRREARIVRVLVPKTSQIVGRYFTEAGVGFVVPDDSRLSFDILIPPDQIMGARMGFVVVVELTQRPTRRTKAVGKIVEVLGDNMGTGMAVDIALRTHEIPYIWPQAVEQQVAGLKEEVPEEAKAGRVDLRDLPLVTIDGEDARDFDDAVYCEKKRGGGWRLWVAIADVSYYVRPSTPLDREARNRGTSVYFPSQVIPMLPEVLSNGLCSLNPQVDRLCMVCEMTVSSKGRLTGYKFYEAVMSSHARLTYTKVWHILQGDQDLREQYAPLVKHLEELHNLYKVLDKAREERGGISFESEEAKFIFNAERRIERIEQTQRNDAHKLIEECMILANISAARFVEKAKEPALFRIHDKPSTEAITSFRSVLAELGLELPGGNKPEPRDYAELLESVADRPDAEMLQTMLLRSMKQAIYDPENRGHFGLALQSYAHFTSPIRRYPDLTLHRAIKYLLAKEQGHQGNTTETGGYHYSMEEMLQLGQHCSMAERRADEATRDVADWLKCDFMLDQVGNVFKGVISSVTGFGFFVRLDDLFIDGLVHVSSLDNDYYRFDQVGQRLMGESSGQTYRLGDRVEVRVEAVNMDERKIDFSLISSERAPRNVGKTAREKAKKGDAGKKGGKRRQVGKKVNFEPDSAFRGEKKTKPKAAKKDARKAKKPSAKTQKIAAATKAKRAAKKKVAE

[12] = target: T4, VacB (UniProt P21499 1-813); assay: BLI; series 1000, 500, 250, 125, 62.5 nM; the filing does not say which partner was on the sensor
T4 sequence: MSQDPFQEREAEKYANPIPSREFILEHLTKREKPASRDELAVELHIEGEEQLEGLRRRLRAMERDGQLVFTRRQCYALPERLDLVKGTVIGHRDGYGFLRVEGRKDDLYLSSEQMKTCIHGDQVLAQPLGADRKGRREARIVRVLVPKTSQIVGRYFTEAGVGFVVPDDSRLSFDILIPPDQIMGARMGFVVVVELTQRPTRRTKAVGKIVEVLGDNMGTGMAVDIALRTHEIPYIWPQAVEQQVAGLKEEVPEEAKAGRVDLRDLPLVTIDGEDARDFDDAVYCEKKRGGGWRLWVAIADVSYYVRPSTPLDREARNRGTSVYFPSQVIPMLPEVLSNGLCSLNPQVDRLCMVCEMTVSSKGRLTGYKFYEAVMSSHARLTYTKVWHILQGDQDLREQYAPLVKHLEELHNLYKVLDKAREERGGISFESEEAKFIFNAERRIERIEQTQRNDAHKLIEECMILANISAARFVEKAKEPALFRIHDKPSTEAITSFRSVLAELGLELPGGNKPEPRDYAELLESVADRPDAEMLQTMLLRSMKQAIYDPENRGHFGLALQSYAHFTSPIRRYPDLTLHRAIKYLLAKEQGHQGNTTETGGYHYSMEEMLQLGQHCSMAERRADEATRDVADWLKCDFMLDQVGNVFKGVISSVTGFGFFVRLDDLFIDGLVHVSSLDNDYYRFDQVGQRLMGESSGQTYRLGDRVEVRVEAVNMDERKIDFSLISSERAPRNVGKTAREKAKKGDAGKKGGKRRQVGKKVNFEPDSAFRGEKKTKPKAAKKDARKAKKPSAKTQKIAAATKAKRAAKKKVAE

[13] = test system: VacB and DksA proteins; assay: CobB deacetylation of VacB and DksA (Western blot, acetylation antibody); type: biochemical; conditions: VacB and DksA co-incubated with CobB
Description: CobB has the activity of deacetylase. CobB was co-incubated with VacB and DksA proteins, and the acetylation level of protein was detected by Western blot analysis of acetylation antibody.

[14] = test system: CheAs protein; type: binding; conditions: CheZ 0, 0.1, 0.2, 0.4 μM; wild-type CheAs 0.2 μM
[15] = target: B2; assay: BLI; series 7500, 5000, 2500, 1250 nM; the filing does not say which partner was on the sensor

In the case of RraA, the Kd [1] is reported as 24.6 nM and the koff [1] is reported as 0.000201 s⁻¹.

In the case of RoxA, the Kd [2] is reported as 103 nM and the koff [2] is reported as 0.00124 s⁻¹.

In the case of `Nc1nc2c(ncn2[C@@H]2O[C@@H]3COP(=O)(O)O[C@H]4[C@@H](O)[C@H](n5cnc6c(=O)[nH]c(N)nc65)O[C@@H]4COP(=O)(O)O[C@H]3[C@H]2O)c(=O)[nH]1` [c-di-GMP], the “complex bands with excessive non-biotinylated competitor” value ([3]; excessive non-biotinylated c-di-GMP added to compete with biotinylated c-di-GMP) is reported as “the complex bands were basically unchanged”.

In the case of “biotinylated m6A RNA: 5′-terminal biotin-modified m6A RNA, sequence CGUCUCGGCUCGGCUGCU (SEQ ID NO: 8) (5' biotin, m6A modification, chemistry not fully specified)”, the “binding proteins obtained by mass spectrometry” value [4] is reported as “YTDHF1, YTDHF2 and YTDHF3” and the “protein-SAm-Pup^E complex bands” value [5] is reported as “presence of complex bands only in the presence of biotinylated m6A RNA”.

Molecule GldA has a Kd [2] of 59.4 nM and a koff [2] of 0.000295 s⁻¹.

With biotinylated c-di-GMP the “complex band of ETHR and SAm-Pup^E monomer” value [3] was “the detected complex bands become thicker” and the “migration of CSP series protein bands” value [6] was “migrated significantly”.

B1: SAm-Pup^E: mutated streptavidin-Pup tetramer, amino acid sequence SEQ ID NO: 5 (protein)
chain: MGAEAGITGTWYNQLGSTFIVTAGADGALTGTYESAVGNAESRYVLTGRYDSAPATDGSGTALGWTVAWRNNYRNAHSATTWSGQYVGGAEARINTQWLLTSGTTEANAWRSTLVGHDTFTRVRPSAASGGGGGSGSHHWGGGGSLTEETDDLLDEIDDVLEENAEDFVRAYVQRGGE
modifications: tetramer; The sequence is synthesized.
For B1, the biotin-binding activity [7] was “the same biotin-binding activity as wild-type streptavidin” and the “stability of binding to biotin agarose beads” value [8] was “can still bind stably in high salt buffer”.

With B2 the Kd [9] was 25 to 772 nM, the “acetylation level of DksA (IB: Ac-K), with and without CobB” value [10] was “Ac-K band seen without CobB, not seen with CobB; His (DksA) bands alike in both lanes; biotin-CobB band only in the + lane” and the “acetylation level of protein detected by Western blot analysis of acetylation antibody” value [10] was “the acetylation level of a group of proteins added with CobB decreased obviously”. The “acetylation level of VacB (IB: Ac-K), with and without CobB” value [11] was “Ac-K band clear without CobB, almost gone with CobB; His (VacB) bands alike in both lanes; biotin-CobB band only in the + lane”, the “acetylation level of protein detected by Western blot analysis of acetylation antibody” value [11] was “the acetylation level of a group of proteins added with CobB decreased obviously” and the Kd [12] was 156 nM. It also gave a koff [12] of 0.00163 s⁻¹.

B3: CobB: Biotin-modified CobB protein with Avi tag; has deacetylase activity (protein)
chain: MLSRRGHRLSRFRKNKRRLRERLRQRIFFRDKVVPEAMEKPRVLVLTGAGISAESGIRTFRAADGLWEEHRVEDVATPEGFDRDPELVQAFYNARRRQLQQPEIQPNAAHLALAKLQDALGDRFLLVTQNIDNLHERAGNTNVIHMHGELLKVRCSQSGQVLDWTGDVTPEDKCHCCQFPAPLRPHVVWFGEMPLGMDEIYMALSMADIFIAIGTSGHVYPAAGFVHEAKLHGAHTVELNLEPSQVGNEFAEKYYGPASQVVPEFVEKLLKGLKAGSIA
With B3 the “acetylation level of protein” value [13] was “decreased obviously”.

B4: CheZ: biotin-modified protein CheZ with Avi tag (protein)
chain: MMQPSIKPADEHSAGDIIARIGSLTRMLRDSLRELGLDQAIAEAAEAIPDARDRLYYVVQMTAQAAERALNSVEASQPHQDQMEKSAKALTQRWDDWFADPIDLADARELVTDTRQFLADVPAHTSFTNAQLLEIMMAQDFQDLTGQVIKRMMDVIQEIERQLLMVLLENIPEQESRPKRENQSLLNGPQVDTSKAGVVASQDQVDDLLDSLGF
In the case of B4, the “complex bands of CheAs and SAm-Pup^E monomer” value [14] is reported as “the detected complex bands become thicker”.

B5: DksA (other)
chain: MQEGQNRKTSSLSILAIAGVEPYQEKPGEEYMNEAQLAHFRRILEAWRNQLRDEVDRTVTHMQDEAANFPDPVDRAAQEEEFSLELRNRDRERKLIKKIEKTLKKVEDEDFGYCESCGVEIGIRRLEARPTADLCIDCKTLAEIREKQMAG
B5 showed a Kd [15] of 772 nM and a koff [15] of 0.00167 s⁻¹.
